The record followed here is US20030099654.

The test system of series [1] is 125I-prothrombin.
For series [2], the target named is 125I-prothrombin. This is another data set of the same source.

For Human Factor Xa, in the series with 125I-prothrombin [1], the “prothrombin cleavage assay (125I-prothrombin, 10% SDS-PAGE, autoradiography); positive control” value was “Addition of human factor X in the presence of calcium and factor V produced cleavage products corresponding to known derivatives of prothrombin”.

B1: mfgl2 fusion protein (murine fgl2 with six histidine residues followed by an enterokinase site at the N-terminus) (protein)
chain: VEEHNLTEGLEDASAQAACPARLEGSGRCEGSQCPFQLTLPTLTIQLPRQLGSMEEVLKEVRTLKEAVDSLKKSCQDCKLQADDHRDPGGNGGNGAETAEDSRVQELESQVNKLSSELKNAKDQIQGLQGRLETLHLVNMNNIENYVDNKVANLTVVVNSLDGKCSKCPSQEHMQSQPVQHLIYKDCSDHYVLGRRSSGAYRVTPDHRNSSFEVYCDMETMGGGWTVLQARLDGSTNFTREWKDYKAGFGNLEREFWLGNDKIHLLTKSKEMILRIDLEDFNGLTLYALYDQFYVANEFLKYRLHIGNYNGTAGDALRFSRHYNHDLRFFTTPDRDNDRYPSGNCGLYYSSGWWFDSCLSANLNGKYYHQKYKGVRNGIFWGTWPGINQAQPGGYKSSFKQAKMMIRPKNFKP
B1: in the series with 125I-prothrombin [2], the “one-stage clotting assay (PCA) in coagulation factor-deficient human plasmas” value was “The PCA expressed by recombinant virus infected cells was independent of all factors except 11 (prothrombin)” and the “prothrombin cleavage assay (125I-prothrombin, 10% SDS-PAGE, autoradiography); purified mfgl2 fusion protein” value is listed as “incubation of 1251-prothrombin with uninfected High 5 cell homogenates or purified protein exhibited no prothrombin cleavage”.
